Earlier results, collected in PMC7092810.

Biological target: Cyclophilin A (Homo sapiens) (UniProt P62937)
Sequence (P62937 whole entry): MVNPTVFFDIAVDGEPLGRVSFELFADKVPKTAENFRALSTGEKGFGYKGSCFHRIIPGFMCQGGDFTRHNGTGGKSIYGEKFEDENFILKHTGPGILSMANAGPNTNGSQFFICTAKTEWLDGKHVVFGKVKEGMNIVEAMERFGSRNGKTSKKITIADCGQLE

HIV-1 capsid protein CA, sequence (O93182 133-363): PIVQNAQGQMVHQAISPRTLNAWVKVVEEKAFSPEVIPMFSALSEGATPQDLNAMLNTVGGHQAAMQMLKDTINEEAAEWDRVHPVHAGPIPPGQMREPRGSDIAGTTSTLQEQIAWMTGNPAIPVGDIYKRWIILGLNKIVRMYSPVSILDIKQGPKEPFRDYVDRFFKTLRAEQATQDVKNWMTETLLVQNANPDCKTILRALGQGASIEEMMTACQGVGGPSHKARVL

Q: Which Kd does the source give for “HIV-1 capsid protein CA (from UniProt O93182)” here?
A: The Kd was 16 µM.
